For one test, the target named is kallikrein 2 (KLK2) (UniProt P20151).
Test [1] concerns the target recombinant soluble murine proADAM10 (truncated, lacking the signal peptide and the regions C-terminal of the protease domain) (murine). Nature of the test: SDS-PAGE with western blot + MALDI-TOF; purified recombinant proADAM10; anti-His-tag western blot and MALDI-TOF; a 100-kDa species called the proADAM10 dimer. On the technique in general: In western blotting, separated proteins are transferred to a membrane and probed.

Chain of UniProt P20151 (P20151 19-261): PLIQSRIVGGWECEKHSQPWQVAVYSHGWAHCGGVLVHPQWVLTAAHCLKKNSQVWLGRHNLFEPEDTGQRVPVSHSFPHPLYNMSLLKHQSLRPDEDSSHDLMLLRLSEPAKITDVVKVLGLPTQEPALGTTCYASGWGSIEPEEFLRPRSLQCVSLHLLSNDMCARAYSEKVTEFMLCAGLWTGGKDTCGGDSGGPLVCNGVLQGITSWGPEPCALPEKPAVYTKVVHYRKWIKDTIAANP

Substance “meprin β-cleaved LEKTI 9–14 (domain or fragment)” came in with a KLK2 proteolytic activity (Z-Pyr-G-R-AMC) after incubation with meprin β-cleaved LEKTI 9–15, relative to uncleaved LEKTI 9–15 in the test with kallikrein 2 (KLK2) of 20%. For “recombinant soluble murine proADAM10 (truncated, lacking the signal peptide and the regions C-terminal of the protease domain) (domain or fragment)”, the stoichiometry N (usually the number of molecules, sites or subunits per partner or assembly) in test [1] is 2.

Values taken from article PMC3535375.
